Results on five sequences are retold here after the supplement of paper PMC5998384.

The test system of data set [1] is HeLa Kyoto. The data set is described as follows: melting temperature (median over replicates), in situ; higher = more thermally stable.
For data set [2], the system named is HeLa Kyoto. Kind of data set: thermal stability score vs G1/S (z-score of summed log2 fold changes over temperatures); higher = more thermally stable than in G1/S.
Data set [3] relates to HeLa Kyoto. Kind of data set: solubility in G1/S (NP-40 vs SDS abundance) (log2 ratio); higher = more soluble. As to conditions: cell cycle stage: G1/S.
For data set [4], the system named is HeLa Kyoto. Kind of data set: solubility change mitosis vs G1/S (difference of NP-40 vs SDS log2 ratios) (log2 ratio difference); higher = more soluble in mitosis.
[5] abbreviates: cell cycle stage: early G1 (4.5 h after nocodazole release).
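Wherever melting temperature (median over replicates), in situ is given: HeLa Kyoto cells synchronized by double thymidine or nocodazole block, proteins quantified by TMT10plex mass spectrometry, three independent biological replicates.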
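Wherever solubility change mitosis vs G1/S (difference of NP-40 vs SDS log2 ratios) is given: synchronized HeLa Kyoto cells (double thymidine block for G1/S, nocodazole release for mitosis), protein amounts in NP-40 versus SDS lysates quantified by mass spectrometry, three biological replicates.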
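Wherever solubility in G1/S (NP-40 vs SDS abundance) is given: HeLa Kyoto cells arrested at G1/S by double thymidine block, proteins quantified by TMT10plex mass spectrometry in mild NP-40 versus SDS extracts, three biological replicates.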
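Wherever thermal stability score vs G1/S (z-score of summed log2 fold changes over temperatures) is given: synchronized HeLa Kyoto cells, proteins quantified by TMT10plex mass spectrometry, three biological replicates, mitosis taken 0.5 h after nocodazole release, G1/S directly after double thymidine block.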

Consider “MESPASSQPASMPQSKGKSKRKKDLRISCMSKPPAPNPTPPRNLDSRTFITIGDRNFEVEADDLVTISELGRGAYGVVEKVRHAQSGTIMAVKRIRATVNSQEQKRLLMDLDINMRTVDCFYTVTFYGALFREGDVWICMELMDTSLDKFYRKVLDKNMTIPEDILGEIAVSIVRALEHLHSKLSVIHRDVKPSNVLINKEGHVKMCDFGISGYLVDSVAKTMDAGCKPYMAPERINPELNQKGYNVKSDVWSLGITMIEMAILRFPYESWGTPFQQLKQVVEEPSPQLPADRFSPEFVDFTAQCLRKNPAERMSYLELMEHPFFTLHKTKKTDIAAFVKEILGEDS [MAP2K3]”, for which the melting temperature in data set [1] (cell cycle stage: G1/S) was 48.8 °C; in data set [1] (cell cycle stage: mitosis), 50.1 °C. For the same sequence, the thermal stability score in data set [2] (setting [5]) worked out at 1.81; in data set [2] (cell cycle stage: mitosis), 2.08. In data set [3], the “solubility in G1/S (log2)” value was -0.00226. In addition, the “solubility change mitosis (log2)” value in data set [4] was -0.112.

As for “MESSPFNRRQWTSLSLRVTAKELSLVNKNKSSAIVEIFSKYQKAAEETNMEKKRSNTENLSQHFRKGTLTVLKKKWENPGLGAESHTDSLRNSSTEIRHRADHPPAEVTSHAASGAKADQEEQIHPRSRLRSPPEALVQGRYPHIKDGEDLKDHSTESKKMENCLGESRHEVEKSEISENTDASGKIEKYNVPLNRLKMMFEKGEPTQTKILRAQSRSASGRKISENSYSLDDLEIGPGQLSSSTFDSEKNESRRNLELPRLSETSIKDRMAKYQAAVSKQSSSTNYTNELKASGGEIKIHKMEQKENVPPGPEVCITHQEGEKISANENSLAVRSTPAEDDSRDSQVKSEVQQPVHPKPLSPDSRASSLSESSPPKAMKKFQAPARETCVECQKTVYPMERLLANQQVFHISCFRCSYCNNKLSLGTYASLHGRIYCKPHFNQLFKSKGNYDEGFGHRPHKDLWASKNENEEILERPAQLANARETPHSPGVEDAPIAKVGVLAASMEAKASSQQEKEDKPAETKKLRIAWPPPTELGSSGSALEEGIKMSKPKWPPEDEISKPEVPEDVDLDLKKLRRSSSLKERSRPFTVAASFQSTSVKSPKTVSPPIRKGWSMSEQSEESVGGRVAERKQVENAKASKKNGNVGKTTWQNKESKGETGKRSKEGHSLEMENENLVENGADSDEDDNSFLKQQSPQEPKSLNWSSFVDNTFAEEFTTQNQKSQDVELWEGEVVKELSVEEQIKRNRYYDEDEDEE [LIMA1]”, the results for the melting temperature in data set [1] (cell cycle stage: G1/S) and in data set [1] (cell cycle stage: mitosis) were 57.9 °C and 54.3 °C, respectively. For the same sequence, the thermal stability score in data set [2] (setting [5]) was -0.923; in data set [2] (cell cycle stage: mitosis) it was -3.34. Besides, the “solubility in G1/S (log2)” value in data set [3] was -1.45. Moreover, the “solubility change mitosis (log2)” value in data set [4] stood at 0.392.

With “MESSSSSNSYFSVGPTSPSAVVLLYSKELKKWDEFEDILEERRHVSDLKFAMKCYTPLVYKGITPCKPIDIKCSVLNSEEIHYVIKQLSKESLQSVDVLREEVSEILDEMSHKLRLGAIRFCAFTLSKVFKQIFSKVCVNEEGIQKLQRAIQEHPVVLLPSHRSYIDFLMLSFLLYNYDLPVPVIAAGMDFLGMKMVGELLRMSGAFFMRRTFGGNKLYWAVFSEYVKTMLRNGYAPVEFFLEGTRSRSAKTLTPKFGLLNIVMEPFFKREVFDTYLVPISISYDKILEETLYVYELLGVPKPKESTTGLLKARKILSENFGSIHVYFGDPVSLRSLAAGRMSRSSYNLVPRYIPQKQSEDMHAFVTEVAYKMELLQIENMVLSPWTLIVAVLLQNRPSMDFDALVEKTLWLKGLTQAFGGFLIWPDNKPAEEVVPASILLHSNIASLVKDQVILKVDSGDSEVVDGLMLQHITLLMCSAYRNQLLNIFVRPSLVAVALQMTPGFRKEDVYSCFRFLRDVFADEFIFLPGNTLKDFEEGCYLLCKSEAIQVTTKDILVTEKGNTVLEFLVGLFKPFVESYQIICKYLLSEEEDHFSEEQYLAAVRKFTSQLLDQGTSQCYDVLSSDVQKNALAACVRLGVVEKKKINNNCIFNVNEPATTKLEEMLGCKTPIGKPATAKL [GNPAT]”, the values for the melting temperature in data set [1] (cell cycle stage: G1/S) and in data set [1] (cell cycle stage: mitosis) were 53.4 °C and 53.7 °C, respectively. The thermal stability score in data set [2] (setting [5]) was -0.31; in data set [2] (cell cycle stage: mitosis), -0.298. In data set [3], the “solubility in G1/S (log2)” value was -0.227. In addition, in data set [4], the “solubility change mitosis (log2)” value was -0.163.

For the sequence “METGAAELYDQALLGILQHVGNVQDFLRVLFGFLYRKTDFYRLLRHPSDRMGFPPGAAQALVLQVFKTFDHMARQDDEKRRQELEEKIRRKEEEEAKTVSAAAAEKEPVPVPVQEIEIDSTTELDGHQEVEKVQPPGPVKEMAHGSQEAEAPGAVAGAAEVPREPPILPRIQEQFQKNPDSYNGAVRENYTWSQDYTDLEVRVPVPKHVVKGKQVSVALSSSSIRVAMLEENGERVLMEGKLTHKINTESSLWSLEPGKCVLVNLSKVGEYWWNAILEGEEPIDIDKINKERSMATVDEEEQAVLDRLTFDYHQKLQGKPQSHELKVHEMLKKGWDAEGSPFRGQRFDPAMFNISPGAVQF [NUDCD3]”, the values for the melting temperature in data set [1] (cell cycle stage: G1/S) and in data set [1] (cell cycle stage: mitosis) were 51 °C and 50.9 °C, respectively. For the same sequence, the thermal stability score is 0.442 in data set [2] (setting [5]) and 0.3 in data set [2] (cell cycle stage: mitosis). The “solubility in G1/S (log2)” value in data set [3] is 0.212. Besides, the “solubility change mitosis (log2)” value in data set [4] was -0.097.

On to “METGTAPLVAPPRRHGAPAAPSPPPRGSRAGPVVVVAPGPPVTTATSAPVTLVAPGEARPAWVPGSAETSAPAPAPAPAPAPAVTGSTVVVLTLEASPEAPKPQLPSGPESPEPAAVAGVETSRALAAGADSPKTEEARPSPAPGPGTPTGTPTRTPSRTAPGALTAKPPLAPKPGTTVASGVTARSASGQVTGGHGAAAATSASAGQAPEDPSGPGTGPSGTCEAPVAVVTVTPAPEPAENSQDLGSTSSLGPGISGPRGQAPDTLSYLDSVSLMSGTLESLADDVSSMGSDSEINGLALRKTDKYGFLGGSQYSGSLESSIPVDVARQRELKWLDMFSNWDKWLSRRFQKVKLRCRKGIPSSLRAKAWQYLSNSKELLEQNPGKFEELERAPGDPKWLDVIEKDLHRQFPFHEMFAARGGHGQQDLYRILKAYTIYRPDEGYCQAQAPVAAVLLMHMPAEQAFWCLVQICDKYLPGYYSAGLEAIQLDGEIFFALLRRASPLAHRHLRRQRIDPVLYMTEWFMCIFARTLPWASVLRVWDMFFCEGVKIIFRVALVLLRHTLGSVEKLRSCQGMYETMEQLRNLPQQCMQEDFLVHEVTNLPVTEALIERENAAQLKKWRETRGELQYRPSRRLHGSRAIHEERRRQQPPLGPSSSLLSLPGLKSRGSRAAGGAPSPPPPVRRASAGPAPGPVVTAEGLHPSLPSPTGNSTPLGSSKETRKQEKERQKQEKERQKQEKEREKERQKQEKEREKQEKEREKQEKERQKQEKKAQGRKLSLRRKADGPPGPHDGGDRPSAEARQDAYF [TBC1D10B]”, for which the melting temperature in data set [1] (cell cycle stage: G1/S) came out at 51.2 °C; in data set [1] (cell cycle stage: mitosis), 52.2 °C. In addition, the thermal stability score in data set [2] (setting [5]) came to 0.22; in data set [2] (cell cycle stage: mitosis), 0.904. The “solubility in G1/S (log2)” value in data set [3] amounted to 0.0909. For the same sequence, the “solubility change mitosis (log2)” value in data set [4] was -0.137.
